Read-outs that look alike come from different tables or passages of the source. One block for each binder: values may come before it.
Key:
[1] = target: T1, Human ROR1 (receptor tyrosine kinase-like orphan receptor 1) (human, UniProt Q01973 30-937); assay: flow cytometry competition, competitor 2 nM Myc-R12 scFv on ROR1/K562 cells, mean (n = 2)
T1 construct: also called hROR1; K562/ROR1
Experimental: (§1) Assays also were performed to assess competition of the clones with the reference antibody (R12 scFv), for binding to ROR1-expressing cells. VH clones were titrated against 2 nM Myc-R12 on ROR1/K562 cells and competition assessed with an anti-Myc-Alexa647 secondary antibody, and the half maximal inhibitory concentration (IC₅₀) determined for respective clones.

[2] = target: T1, Human ROR1 (receptor tyrosine …); assay: flow cytometry on ROR1-expressing K562 and CHOK1 cells (n = 1)
[3] = target: T1, Human ROR1 (receptor tyrosine …); assay: flow cytometry on ROR1-expressing cells; predicted plateau relative to R12 scFv = 100%
Experimental: (§2) Additionally, percent (%) maximum (max) binding to ROR1-expressing cells and % max competition with the reference antibody (R12 scFv) were calculated. Percent max binding and competition values were calculated based on predicted plateaus (measured by Prism® using four parameter non-linear regression), relative to values for R12 scFv binding and inhibition, respectively, assigned as 100% in each study.

[4] = target: T1, Human ROR1 (receptor tyrosine …); assay: competition with Myc-R12 scFv on ROR1/K562 cells; predicted plateau relative to R12 scFv = 100%
Experimental: as §1, §2

[5] = target: T1, Human ROR1 (receptor tyrosine …); assay: competition with R12 scFv on ROR1-expressing cells; predicted plateau relative to R12 scFv = 100%
Experimental: as §2
(§3) Assays also were performed to assess competition (measured as half maximal inhibitory concentration (IC₅₀)) of the clones with the R12 scFv reference antibody for binding to ROR1-expressing cells, as described in Example 1. Percent (%) max ROR1 and % max competition, as compared to the R12 scFv reference antibody, were determined as described in Example 1.

[6] = target: T1, Human ROR1 (receptor tyrosine …); assay: flow cytometry on ROR1-expressing K562 and CHOK1 cells, mean (n = 9)
[7] = target: T1, Human ROR1 (receptor tyrosine …); assay: flow cytometry competition, competitor R12 scFv on ROR1-expressing cells, mean (n = 5)
Experimental: as §1, §3

[8] = target: T1, Human ROR1 (receptor tyrosine …); assay: flow cytometry on ROR1-expressing cells; predicted plateau relative to R12 scFv = 100%; remark: listed apart in the source
Experimental: as §2, §3

[9] = target: T1, Human ROR1 (receptor tyrosine …); assay: flow cytometry on ROR1-expressing K562 and CHOK1 cells, mean (n = 2)
[10] = target: T1, Human ROR1 (receptor tyrosine …); assay: flow cytometry competition, competitor 2 nM Myc-R12 scFv on ROR1/K562 cells, mean (n not given)
Experimental: as §1

[11] = target: T1, Human ROR1 (receptor tyrosine …); assay: flow cytometry competition, competitor R12 scFv on ROR1-expressing cells, mean (n = 4)
Experimental: as §1, §3

[12] = target: T1, Human ROR1 (receptor tyrosine …); assay: flow cytometry on ROR1-expressing K562 and CHOK1 cells, mean (n = 4)
Mouse ROR1 = target: T2, Mouse ROR1 (mouse, UniProt Q9Z139 30-937); assay: inferred from IFN-gamma release of CAR T cells on K562/mouse ROR1 cells
T2 construct: also called mROR1; K562/mouse ROR1
T2 sequence (Q9Z139 30-937): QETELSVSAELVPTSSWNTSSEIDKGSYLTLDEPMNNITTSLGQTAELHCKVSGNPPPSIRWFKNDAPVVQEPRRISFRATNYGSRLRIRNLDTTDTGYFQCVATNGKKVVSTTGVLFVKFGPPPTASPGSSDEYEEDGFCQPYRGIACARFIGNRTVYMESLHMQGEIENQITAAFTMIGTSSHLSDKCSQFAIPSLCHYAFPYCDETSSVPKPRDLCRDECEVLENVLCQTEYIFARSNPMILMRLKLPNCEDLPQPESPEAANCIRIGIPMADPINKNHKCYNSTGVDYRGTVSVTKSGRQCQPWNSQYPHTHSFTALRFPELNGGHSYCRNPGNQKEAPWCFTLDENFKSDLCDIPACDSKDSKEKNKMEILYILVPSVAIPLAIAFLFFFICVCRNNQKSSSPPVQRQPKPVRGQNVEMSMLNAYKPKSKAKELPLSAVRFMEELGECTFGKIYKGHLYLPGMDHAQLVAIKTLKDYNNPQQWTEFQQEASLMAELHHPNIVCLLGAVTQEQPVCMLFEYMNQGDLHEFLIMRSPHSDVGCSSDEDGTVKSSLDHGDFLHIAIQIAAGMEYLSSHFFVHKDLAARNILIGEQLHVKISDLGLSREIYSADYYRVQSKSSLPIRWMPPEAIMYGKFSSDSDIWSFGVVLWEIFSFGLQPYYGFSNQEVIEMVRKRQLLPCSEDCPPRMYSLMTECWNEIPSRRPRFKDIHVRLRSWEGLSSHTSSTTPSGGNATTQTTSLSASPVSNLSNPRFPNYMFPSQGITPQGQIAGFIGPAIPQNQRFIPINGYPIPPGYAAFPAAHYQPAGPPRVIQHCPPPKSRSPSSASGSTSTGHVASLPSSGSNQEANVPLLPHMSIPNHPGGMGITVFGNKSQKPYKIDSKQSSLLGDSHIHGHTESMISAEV
Experimental: Cytokine release was assessed following incubation of the CAR-expressing cells with either K562/human ROR1 (hROR1) or K562/mouse ROR1 (mROR1) antigen-expressing cells. Transduced CD8+ T cells were co-cultured with antigen-expressing cells at a single effector to target (E:T). The co-cultured cells were incubated for about 24 hours, and then supernatants were collected for measurement of IFN-γ using a cytokine immunoassay.

[13] = target: T1, Human ROR1 (receptor tyrosine …); assay: flow cytometry competition, competitor 2 nM Myc-R12 scFv on ROR1/K562 cells, mean (n = 3)
Experimental: as §1

[14] = target: T1, Human ROR1 (receptor tyrosine …); assay: flow cytometry competition, competitor R12 scFv on ROR1-expressing cells, mean (n = 3)
Experimental: as §1, §3

[15] = target: T1, Human ROR1 (receptor tyrosine …); assay: flow cytometry competition, competitor 2 nM Myc-R12 scFv on ROR1/K562 cells, mean (n = 8)
Experimental: as §1

[16] = target: T1, Human ROR1 (receptor tyrosine …); assay: flow cytometry on ROR1-expressing K562 and CHOK1 cells, mean (n = 7)

T1 sequence (Q01973 30-937): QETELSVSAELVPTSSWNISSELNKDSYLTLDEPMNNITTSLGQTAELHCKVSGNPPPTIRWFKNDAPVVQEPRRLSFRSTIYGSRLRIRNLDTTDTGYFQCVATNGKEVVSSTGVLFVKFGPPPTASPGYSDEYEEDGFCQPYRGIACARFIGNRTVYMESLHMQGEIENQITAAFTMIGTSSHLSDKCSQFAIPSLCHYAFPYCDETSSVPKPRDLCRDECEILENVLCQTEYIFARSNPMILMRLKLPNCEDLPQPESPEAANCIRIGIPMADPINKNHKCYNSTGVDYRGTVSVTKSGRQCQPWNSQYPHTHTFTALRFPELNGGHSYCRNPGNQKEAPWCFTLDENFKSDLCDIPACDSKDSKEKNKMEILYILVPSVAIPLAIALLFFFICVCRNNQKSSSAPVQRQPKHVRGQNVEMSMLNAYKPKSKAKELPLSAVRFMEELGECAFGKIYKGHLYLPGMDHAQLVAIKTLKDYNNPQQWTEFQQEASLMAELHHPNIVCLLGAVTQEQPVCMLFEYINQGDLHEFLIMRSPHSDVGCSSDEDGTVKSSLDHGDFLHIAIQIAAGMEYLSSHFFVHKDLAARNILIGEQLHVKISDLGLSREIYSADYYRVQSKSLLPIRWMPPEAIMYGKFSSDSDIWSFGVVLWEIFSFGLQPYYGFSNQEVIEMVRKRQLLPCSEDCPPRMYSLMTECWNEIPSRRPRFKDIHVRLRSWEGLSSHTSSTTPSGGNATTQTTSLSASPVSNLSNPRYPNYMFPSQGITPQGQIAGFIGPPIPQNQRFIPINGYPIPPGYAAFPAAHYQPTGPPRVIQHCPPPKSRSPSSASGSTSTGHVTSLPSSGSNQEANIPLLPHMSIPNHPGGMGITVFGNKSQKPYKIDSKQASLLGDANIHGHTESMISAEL

IC50 [1]: 0.0288 µM
EC50 [2]: 0.0287 µM
% Max Binding [3]: 78%
% Max Competition [4]: 37%
B1: Clone V316 (VHH)
VHH: EVQLVESGGGLVRPGGSLRLSCAASGLTFSRTWMSWVRQAPGKGLEWVASINDDGSEKYYVDSVKGRFTISRDNARNSLYLQMNRLRAEDTAVYYCARVDSERFLEWYYFDYWGQGTLVTVSS
notes: human VH-only single-domain antibody, no VL

% Max Competition [5]: 77%
EC50 [6]: 0.0026 µM
IC50 [7]: 0.0047 µM
% Max Binding [8]: 97%
B2: Clone 20 scFv (scFv)
scFv: QVTLKESGGGLVKPGGSLRLSCAASGFTFSNAWMSWVRQAPGKGLEWVGRIKSKTDGGTTDYAAPVKGRFTISRDDSKNTLYLQMNSLKTEDTAVYYCARDFGRWSYYFDYWSQGTLVTVSSNIQMTQSPSSLSASVGDRVTITCRASQSINKWLAWYQQKPGKAPKLLIHDASTLESGVPSRFSGSGSGTEFTLTISSLHPDDSATYYCQQLKSRPLSFGEGTKLEIK
notes: 262 differs only at the VH N-terminus; Printed without a linker

EC50 [9]: 0.129 µM
B3: Clone V102 (VHH)
VHH: QVQLVESGGGLVQPGRSLRLSCTASGFTFGDYAMSWVRQAPGKGLEWVGFIRSKAYGGTTEYAASVKGRFTISRDDSQSIAYLQMDSLKTEDTAVYYCAKVGPSWDYYFDYWGQGTLVTVSS
notes: as for B1

IC50 [10]: 0.0946 µM
EC50 [2]: 0.0462 µM
% Max Binding [3]: 74%
% Max Competition [4]: 32%
B4: Clone V224 (VHH)
VHH: QVQLVESGGGLVKPGGSLRLSCAASGFTFINAWMSWVRQAPGKGLEWVGRIKSKTDGGTTDYAAPVKGRFTISRDDSKNTLYLQMNSLKTEDTAVYYCARTYSSSWYESLLFDYWGQGTLVTVSS
notes: as for B1

EC50 [9]: 0.0355 µM
IC50 [1]: 0.019 µM
% Max Binding [3]: 61%
% Max Competition [4]: 36%
B5: Clone V95 (VHH)
VHH: QVQLVESGGGLVKPGGSLRLSCAASGFTFSNAWMSWVRQAPGKGLEWVGRIKSKTDGGTTDYAAPVKGRFTISRDDSKKTLYLQMNSLKTEDTAVYYCARGSGELRFLESYYFDYWGQGTLVTVSS
notes: as for B1

% Max Competition [5]: 70%
IC50 [11]: 0.0228 µM
% Max Binding [8]: 81%
EC50 [12]: 0.0032 µM
B6: Clone 40 scFv (scFv)
scFv: QVTLKESGGGLVKPGGSLRLSCAASGFTFSNAWMSWVRQAPGKGLEWVGRIKSKTDGGTTDYAAPVKGRFTISRDDSKNTLYLQMNSLRTEDTAVYYCARDFGRWSYYFDYWSQGTLVTVSSQPVLTQPHSVSESPGKTVTISCTRSSGNIASNFVQWYQRRPDGATTNVIYEDTQRPSGVSGRFSGSIDRSSNSASLTISGLRAEDEADYYCQSYDGRNLMFGGGTKVTVL
notes: the two differ at the VH N-terminus; Printed without a linker

binding result (Mouse ROR1): binds
B7: CAR containing Clone V353 VH-only antigen-binding domain (other)
chain: QVTLKESGGGLVKPGGSLRLSCAASGFTFSNAWMSWVRQAPGKGLEWVGRIKSKTDGGTTDYAAPVKGRFTISRDDSKNTLYLQMNSLKTEDTAVYYCARDFGRWGYYFDYWSQGTLVTVSS
notes: Chimeric antigen receptor expressed on primary human CD8+ T cells; tEGFR marker is split off by T2A; also called V353 CAR; not shown: Ig-derived hinge only spacer, human CD28-derived transmembrane domain, human 4-1BB-derived intracellular signaling domai

EC50 [9]: 0.0007 µM
IC50 [1]: 0.0004 µM
% Max Binding [3]: 35%
% Max Competition [4]: 62%
B8: Clone V353 (VHH)
VHH: QVTLKESGGGLVKPGGSLRLSCAASGFTFSNAWMSWVRQAPGKGLEWVGRIKSKTDGGTTDYAAPVKGRFTISRDDSKNTLYLQMNSLKTEDTAVYYCARDFGRWGYYFDYWSQGTLVTVSS
notes: as for B1

EC50 [9]: 0.0002 µM
% Max Binding [3]: 37%
% Max Competition [4]: 54%
IC50 [13]: 0.0034 µM
B9: Clone V18 (VHH)
VHH: QVQLVESGGGLVKPGGSLRLSCAASGFTFSNAWMSWVRQAPGKGLEWVGRIKSKTDGGTTDYAAPVKGRFTISRDDSKNSLYLQMNSLKTEDTAVYYCARDFGRWSYYFDYWGQGTLVTVSS

EC50 [9]: 0.0977 µM
B10: Clone V86 (VHH)
VHH: QVQLLESGGGLVQPGGSLRLSCAASGFTFSSYAMSWVRQAPGKGLEWVSAISGSGGSTYYADSVKGRFTISRDNSKNTLYLQMNSLRAEDTAVYYCARVIFGVVNIPDYWGQGTLVTVSS
notes: as for B1

% Max Competition [5]: 55%
% Max Binding [8]: 69%
IC50 [14]: 0.0537 µM
EC50 [12]: 0.0092 µM
B11: Clone 48 scFv (scFv)
scFv: QVTLKESGGGLVKPGGSLRLSCAASGFTFSNAWMSWVRQAPGKGLEWVGRIKSKTDGGTTDYAAPVKGRFTISRDDSKNTLYLQMNSLKTEDTAVYYCARDFGRWSYYFDYWSQGTLVTVSSGGGGSGGGGSGGGGSQSVLTQPSSVSGTPGQRVTISCSGSSSNIGSNYVYWYQQLPGTAPKLLIYRNNQRPSGVPDRFSGSKSGTSASLAISGLRSEDEADYYCAAWDDSLSGVVFGGGTKLTVL

binding result (Mouse ROR1): binds
B12: CAR containing Clone 48 scFv (VH-VL) (other)
chain: QVTLKESGGGLVKPGGSLRLSCAASGFTFSNAWMSWVRQAPGKGLEWVGRIKSKTDGGTTDYAAPVKGRFTISRDDSKNTLYLQMNSLKTEDTAVYYCARDFGRWSYYFDYWSQGTLVTVSSGGGGSGGGGSGGGGSQSVLTQPSSVSGTPGQRVTISCSGSSSNIGSNYVYWYQQLPGTAPKLLIYRNNQRPSGVPDRFSGSKSGTSASLAISGLRSEDEADYYCAAWDDSLSGVVFGGGTKLTVL
notes: Chimeric antigen receptor expressed on primary human CD8+ T cells; tEGFR marker is split off by T2A; also called 48 CAR; not shown: Ig-derived hinge only spacer, human CD28-derived transmembrane domain, human 4-1BB-derived intracellular signaling domai

binding result (Mouse ROR1): binds
B13: CAR containing Clone V70 VH-only antigen-binding domain (other)
chain: QVQLLESGGGLVQPGRSLRLSCTASGFTFGDYAMSWVRQAPGKGLEWVSSISGSGRSTDHADYVKGRFTISRDNSKNTVYLQMNRLRAEDTAVYYCAKVSNYEYYFDYWAQGTLVTVSS
notes: Chimeric antigen receptor expressed on primary human CD8+ T cells; tEGFR marker is split off by T2A; also called V70 CAR; not shown: Ig-derived hinge only spacer, human CD28-derived transmembrane domain, human 4-1BB-derived intracellular signaling domai

IC50 [15]: 0.0382 µM
EC50 [16]: 0.0031 µM
% Max Binding [3]: 92%
% Max Competition [4]: 92%
B14: Clone V70 (VHH)
VHH: QVQLLESGGGLVQPGRSLRLSCTASGFTFGDYAMSWVRQAPGKGLEWVSSISGSGRSTDHADYVKGRFTISRDNSKNTVYLQMNRLRAEDTAVYYCAKVSNYEYYFDYWAQGTLVTVSS
notes: as for B1

Source: patent US20160208018A1 (JUNO THERAPEUTICS, published 2016)
